Laboratory results from US20100234287A1, “Targeting Bacterial Suicide Pathways for the Development of Novel Antibiotics” (UNIVERSITY OF MEDICINE AND DENTISTRY OF NEW JERSEY, priority 2006, published 2010).
d = 2'-deoxy (DNA); r = 2'-OH (RNA)

Legend:
wild type yeast cells = assay type: cell-based
MazF = MazF (Escherichia coli, UniProt P0A850+P0AE70)
Experimental: The reaction was carried out as described in the text. Fluorescence was measured at 635 nm with excitation at 550 nm.
In a pilot experiment, we synthesized a small amount of CBS-1 and performed the cleavage reaction with use of purified MazF. The MIase reaction was carried out as follows; 5 μl (5×) MazF buffer (50 mM Tris-HCl, pH 7.8), 10 μl distilled water and 5 μl of CBS-1 solution (2 pmol/μl) were mixed and the mixture was preincubated at 37° C. The reaction was started by adding different concentrations of MazF (5 μl) (see FIG. 5). The excitation and emission wavelengths used were 550 and 635 nm, respectively.
MazF used in this reaction is fused to the trigger factor (a cold-shock molecular chaperone used for high expression of MazF).

E. coli = assay type: cell-based
[1] = target: T1, ChpBK, His-tagged at the C-terminal end (E. coli K12, UniProt P33647 1-116); assay: Ni-NTA purification of the complex via the His-tagged toxin
T1 construct: not shown: C-terminal His tag from pET21
T1 sequence (looked up): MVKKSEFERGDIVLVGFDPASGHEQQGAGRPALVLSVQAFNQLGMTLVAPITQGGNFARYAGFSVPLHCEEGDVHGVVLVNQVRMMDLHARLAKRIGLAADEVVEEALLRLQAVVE

E. coli cells [2] = settings: MazF induction (Zhang et al., 2003b); cited from earlier work
lpp mRNA = assay type: cell-based, E. coli
[3] = target: T2, YafQ with His6 tag at the carboxy terminus (E. coli K12, UniProt Q47149 1-92); assay: affinity chromatography, co-purification via His6-tagged YafQ
T2 construct: not shown: C-terminal His6 tag from the pET vector
T2 sequence (looked up): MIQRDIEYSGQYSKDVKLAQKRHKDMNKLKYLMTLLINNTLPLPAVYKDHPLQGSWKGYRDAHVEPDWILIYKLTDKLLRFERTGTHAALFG

[4] = tested on: cellular mRNAs (ompA, tufA, ompF) and polysomes; assay: Northern blot and polysome pattern after Doc induction (pBAD, arabinose)
Experimental: Northern blot analysis after Doc induction. The doe gene was induced with use of a pBAD vector by the addition of arabinose. At the times after induction indicated on top of the gels, total cellular RNAs were extracted and analyzed by Northern blot for ompA, tufA and ompF mRNAs.
Polysome patterns of cells without (left panels) or with Doc induction (right panels) using cells harboring pBADdoc. Polysome patterns were analyzed as described in FIG. 11 with and without Doc induction by the addition of arabinose. Polysome patterns were analyzed in the presence (upper panels) or in the absence of hygromycin, an antibiotic that blocks translation elongation reaction.

[5] = target: T3, RelE, His-tagged at the C-terminal end (E. coli K12, UniProt P0C077 1-95); assay: Ni-NTA purification of the complex via the His-tagged toxin
T3 construct: not shown: C-terminal His tag from pET21
T3 sequence (looked up): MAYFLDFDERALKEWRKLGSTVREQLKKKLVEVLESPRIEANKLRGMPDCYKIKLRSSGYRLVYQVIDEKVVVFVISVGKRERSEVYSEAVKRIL

YdcE = target: T4, YdcE (B. subtilis, UniProt P96622 1-116); assay: purification of the toxin-antitoxin complex
T4 construct: also called MazF homologue from B. subtilis
T4 sequence (looked up): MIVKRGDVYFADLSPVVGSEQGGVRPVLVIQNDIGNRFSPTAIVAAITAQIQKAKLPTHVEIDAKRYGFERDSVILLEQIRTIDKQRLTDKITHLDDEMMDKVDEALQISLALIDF

[6] = target: T5, MazF, His-tagged at the C-terminal end (E. coli K12, UniProt P0AE70 1-111); assay: Ni-NTA purification of the complex via the His-tagged toxin
T5 construct: not shown: C-terminal His tag from pET21
T5 sequence (looked up): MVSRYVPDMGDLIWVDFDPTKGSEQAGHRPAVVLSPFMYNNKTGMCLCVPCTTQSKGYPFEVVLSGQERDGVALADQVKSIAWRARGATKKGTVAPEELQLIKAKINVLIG

[7] = tested on: translation initiation complex; assay: Toeprinting assay on a translation initiation complex (mazG mRNA fragment, 70S ribosomes); assay type: biochemical, E. coli; settings: only in the presence of ribosomes
ompA and ompF mRNAs = assay type: cell-based, E. coli; settings: 2-h induction of YoeB with arabinose
E. coli cells [8] = assay type: cell-based; settings: arabinose-inducible pBAD vector
[9] = target: T6, HipA, His-tagged at the C-terminal end (E. coli K12, UniProt P23874 1-440); assay: Ni-NTA purification of the complex via the His-tagged toxin
T6 construct: not shown: C-terminal His tag from pET21
T6 sequence (looked up): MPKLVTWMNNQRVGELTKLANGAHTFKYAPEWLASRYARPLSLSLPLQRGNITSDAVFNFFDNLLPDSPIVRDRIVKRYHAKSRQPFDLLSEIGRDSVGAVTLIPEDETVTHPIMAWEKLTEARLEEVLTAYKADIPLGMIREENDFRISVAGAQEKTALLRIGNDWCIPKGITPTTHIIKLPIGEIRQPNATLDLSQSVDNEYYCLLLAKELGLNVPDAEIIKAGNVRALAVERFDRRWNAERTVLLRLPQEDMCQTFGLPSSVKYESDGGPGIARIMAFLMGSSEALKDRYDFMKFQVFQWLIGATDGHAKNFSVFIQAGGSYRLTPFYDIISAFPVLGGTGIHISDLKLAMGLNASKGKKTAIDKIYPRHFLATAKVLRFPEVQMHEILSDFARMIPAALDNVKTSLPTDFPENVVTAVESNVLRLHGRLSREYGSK

## RelE: E. coli toxin, ribosome-associating factor that stimulates ribosomal endo-ribonuclease activity
Wild type yeast cells
  toxicity / growth inhibition in yeast: prokaryote-specific growth inhibitors

## dGdAdTdArUdAdCdAdTdAdTdG [CBS-1]
MazF; MazF fused to trigger factor, 37° C., pilot experiment
  function as substrate for MazF: suitable and sensitive substrate

## dGdAdTdArUrArCdGdTdAdTdG (GATAUACGTATG; sugars from the 5' end d4 r3 d5, backbone not given here) [CBS-2]
MazF; substrate not yet synthesized
  cleavage by MazF: not by MazF

B1: YafQ: E. coli toxin of the YafQ-DinJ TA system, sequence-specific MIase (protein)
chain: T2 sequence (looked up)
modifications: left off: small tags and cut ends
Wild type yeast cells
  toxicity / growth inhibition in yeast: growth inhibitor
E. coli
  toxicity / growth inhibition in E. coli: growth inhibitor

B2: ChpBI (other, E. coli K12, UniProt P08365 1-83, looked up)
chain: MRITIKRWGNSAGMVIPNIVMKELNLQPGQSVEAQVSNNQLILTPISRRYSLDELLAQCDMNAAELSEQDVWGKSTPAGDEIW
notes: also called ChpBI antitoxin
[1]
  binding result: binds

B3: MazF: E. coli toxin, sequence-specific (ACA) endoribonuclease, mRNA interferase (protein)
chain: T5 sequence (looked up)
modifications: left off: small tags and cut ends
E. coli cells [2]
  time after induction until cellular protein synthesis is inhibited: 15 to 20 min
Lpp mRNA
  time after induction until full-length lpp mRNA disappears: ≤ 5 min

B4: DinJ (other, E. coli K12, UniProt Q47150 1-86, looked up)
chain: MAANAFVRARIDEDLKNQAADVLAGMGLTISDLVRITLTKVAREKALPFDLREPNQLTIQSIKNSEAGIDVHKAKDADDLFDKLGI
notes: Co-expressed with YafQ from a pET vector; the His6 tag was added only to YafQ; also called DinJ antitoxin
[3]
  binding result: binds

B5: Doc: toxin of the Doc-Phd TA operon from phage P1 (protein)
chain: MRHISPEELIALHDANISRYGGLPGMSDPGRAEAIIGRVQARVAYEEITDLFEVSATYLVATARGHIFNDANKRTALNSALLFLRRNGVQVFDSPELADLTVGAATGEISVSSVADTLRRLYGSAE
modifications: left off: small tags and cut ends
[4]; 120 min after induction
  degradation of cellular mRNAs: not degraded
[4]; after 2 h induction, without addition of hygromycin
  polysome pattern: did not change

B6: RelB (other, E. coli K12, UniProt P0C079 1-79, looked up)
chain: MGSINLRIDDELKARSYAALEKMGVTPSEALRLMLEYIADNERLPFKQTLLSDEDAELVEIVKERLRNPKPVRVTLDEL
notes: also called RelB antitoxin
[5]
  binding result: binds

B7: YdcD (other, B. subtilis, UniProt P96621 1-93, looked up)
chain: MSESSARTEMKISLPENLVAELDGVAMREKRSRNELISQAVRAYVSERTTRHNRDLMRRGYMEMAKINLNISSEAHFAECEAETTVERLVSGG
notes: also called YdcD antitoxin
YdcE
  binding result: binds

B8: MazE (other, E. coli K12, UniProt P0AE72 1-82, looked up)
chain: MIHSSVKRWGNSPAVRIPATLMQALNLNIDDEVKIDLVDGKLIIEPVRKEPVFTLAELVNDITPENLHENIDWGEPKDKEVW
notes: also called MazE antitoxin
[6]
  binding result: binds

B9: YoeB: E. coli toxin of the YoeB-YefM TA system, 50S ribosome associating protein (protein)
chain: MKLIWSEESWDDYLYWQETDKRIVKKINELIKDTRRTPFEGKGKPEPLKHNLSGFWSRRITEEHRLVYAVTDDSLLIAACRYHY
modifications: left off: small tags and cut ends
notes: E. coli toxin of the YoeB-YefM TA system, 50S ribosome associating protein
[7]
  shift of the toeprint band upstream of the normal toeprinting band: 11 bases
Lpp mRNA
  time after induction at which a substantial amount of full-length lpp mRNA is still present: more than 1 h
ompA and ompF mRNAs
  position of primer extension block downstream of the initiation codon, ompA mRNA: 3 bases
  position of primer extension block downstream of the initiation codon, ompF mRNA: 6 bases
E. coli cells [8]
  time after induction until cellular protein synthesis is almost completely inhibited: ≤ 5 min
Wild type yeast cells
  toxicity / growth inhibition in yeast: not toxic

B10: HipB (other, E. coli K12, UniProt P23873 1-88, looked up)
chain: MMSFQKIYSPTQLANAMKLVRQQNGWTQSELAKKIGIKQATISNFENNPDNTTLTTFFKILQSLELSMTLCDAKNASPESTEQQNLEW
notes: also called HipB antitoxin
[9]
  binding result: binds
